Experiment: yeast display, Sf9 membrane polyspecificity reagent, FACS + sequencing; frameworks hold sequencing errors
Outline: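 Galactose-induced (36–48 hours) yeast carrying a synthetic nanobody display library were exposed to 10% biotinylated, detergent-solubilized Sf9 membrane reagent at 4 °C for 1 hour. FACS followed streptavidin microbead enrichment, using low and high (top ~1%) gates for expression (anti-HA) and reagent binding (streptavidin). Colony PCR, MiSeq 2 × 250 sequencing and CDR-length filtering followed. Labels for polyreactivity reflect the gate of origin.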

| Sequence | polyreactivity (PSR sort gate) |
| --- | --- |
| QVQLVESGGGLVQAGGSLRLSCAASGFIFSRYAMGWSRQAPGKERELVAAISSRGGSTYYADSVKGRFTISRDNAKNTVYLQMNSLKPEDTAVFYWIAVGSAHYDYWGQGTQVTVSS | high polyreactivity |
| QVQLVESGGGLVQAGGSLRLSCAASGRSFRPYARGWYRQAPGKERELVAAISSSGGSTYYADSVKGRFTISRDNAKNTVYLQMNSLKPEDTAVYYCATYFARGYNSWGQGTQVTVSS | high polyreactivity |
| QVQLVESGGGLVQAGGSLRLSCAASGSIFSDNAMGWYRQAPGKERDLVAAISWIGDSTDYADSVKGRFTISRDNAKNTVYLQMNSLKPEDTAVYYCAADAKVVSPRYRANDIGMFYWGQGTQVTVSS | low polyreactivity |
| QVQLVESGGGLVQAGGSLRLSCAASGIIFPYNVMGWYRQAPGKERELVAAITRGAASTYYADSVKGRFTISRDNAKNTVYLQMNSLKPEDTAVYYCNADGTWRTYNYWGQGTQVTVSS | high polyreactivity |
| QVQLVESGGGLLQAGGSLRLSCAASGRIFRGYAMGWYRQAPGKESELVAGITSGGSTKYADSVKGRFTISRDNAKNTVYLQMNSLKPEDTAVYYCAKGYLPYSYYARPYIRYYWGQGTQVTVSS | high polyreactivity |
| QVHLVESGGGLVQAGGSLRLSCAASGRIFGTYVMGWYRQAPGKERELVARITGGGSTNYADSVKGRFTISRDNAKNTVYLQMNSLKPEDTAVYYCARDYGPYLSPENPAPMDYWGQGTQVTVSS | low polyreactivity |
| QVQLVESGGGLVQAGGSLRLSCAASGSTFVPNAMGWYRQAPGKERELVAAISYSGGTTYYADSVKGRFTISRDNAKNTVYLQMNSLKPEDTEVYYCAARSKGAAAILDDYWGQGTQVTVSS | low polyreactivity |
| QVQLVESGGGLVQAGGSLRLSCAASGSIFDPNAMGWYRQAPGKERELVANITNGGRTNYADSVKGRFTISRDNAKNTVYLQMNSLKPEDTAVYYCAKDSPFTSVTVLAPIIYDSWGQGTQVTVSS | low polyreactivity |
| QVQLVESRGGLVQAGGSLRLSCAASGFTFRAYAMGWYREAPGKERELVAAISTGGGSTYYADSVKGRFTISRDNAKITVYFQMNSLKPEDTAVYYCNALPQRRYYYWGQGTHVTVSS | high polyreactivity |
| QVQLVESGGGLVQAGGSLRLRCAASGGTFGVNAMGWYRQAPGKERELVAAISSSGGRTYYADSVKGRFTISRDNAKNTVYLQMNSLKPEDTAVYYCAARNYFWGQGTQVTVSS | low polyreactivity |
| QVQLVESGGGLVQAGGSLRISCAASGFTFPLYAMGWYRQAPGKERELVAAINYRGSSTYYADSVKGRFTISRDNAKNTVYLHMNSLKPEYTAVYYCNAADPVWNQVYWGSNEYDYWGQGTQVTVSS | high polyreactivity |
| QVQLVESGGGLVQAGGSLRLSCAASGLIFVRYAMGWYRQAPGKERELVAAISRGGTTYYADSVKGRFTISRDNAKNTVYLQMNSLKPEDTAVYYCAVGIRYSKDYYYWGQGTQVTVSS | high polyreactivity |
| QVQLVESGGGLVQEGGSLRLICAASGRIFAGYAMGWYSQAPGKERELVAAISQDGGSTYYADSVKGRFTISRDNAKNTVYLQMNSLKPEDTAVYYCAAEDPDSWLPWDLFDYWGQGTQVTVSS | low polyreactivity |
| QVQLVESGGGLVQAGGSLRLSCAASGRTFWWYAMGWYRQAPGKERELVAAITQSGGSTFYADSVKGRFTISRDNAKNTVYLQMNSLKPEDTAVYYWGQGTQVTVSS | low polyreactivity |
| QVQLVESGGGLVQAGGSLRLSCAASGFTIGRYDMGWYRQAPGKERELVAAISWSGGSTYYADSVKGRFTISRDNAKNTVYLQMNSLKPEDTAVYYCNAAYYGYENLSKRGYWGQGTQVTVSS | high polyreactivity |
| QVQLVDSGGGLVQEGGSLRLSCAASGLTFYSNAMGWYRQARGKERELVARISTGGSTYADSVKGRFTISRDNAKNTVYLQMNSLKPEVTAVYYCAAEYNLRTYWGDYWGQGTQVTVSS | low polyreactivity |
| QVQLVESGGGLVQAGGSLRLSCAASGITFFLYAMGWYRQAPGKERELVAVISASGGSTYYADSVKGRFTISRDNAKNTVYLQMNSLKPEDTAVYYCAAGYRFYGFYALYYWGQGTQVTVSS | high polyreactivity |
| QVQLVESGGGLVQAGGSLRLSCAASGSTLSYNAMGWYRQAPGKERELVAAISWSDGGTYYADSVKGRFTISRDTAKNTVFLQMNSLKPEDTAVYYCAARRGVRYSKFGYYYWGQGTQVTVSS | high polyreactivity |
| QVQQPESGGGLVQAGGSLRLSCAASGTIFQLTVMGRSRQAPGKERELVASIDYGGNPNYADSVKGRFTISRDNAKNTVYLQMNCLKPEDTAVYYCAASSDSWTTHPYWGQGTQVTVSS | low polyreactivity |
| QVQLVESGGGLVQAGGSLRLSCAASGFTFYWYTMGWNRQAPGKERELVAAISRRGGSTSYADSVKGRFTISRDNAKNTVYLQMNSLKPEDTAVYYCAKTPGWTDYDYWGQGTQVTVSS | high polyreactivity |
| QVQLVESGGGLVQAGGSLRLSCAASGSTFYLNAMGWYRQAPGKERELVAAITVSGGSTYYADSVKGRFTISRDNAKNTVYLQMNSLKPEDTAVYYCARELLSPTYPRWYYYWGQGTQVTVSS | low polyreactivity |
| QVQLVESGGGLVQAGGSLRLSCAASGSTLANYAMGWYRQAPGKERELVAAINSGGSTYYADSVKGRFTISRDNAKNTVYLQMNSLKPEDTAVYYCAAETPNYYGWWEPVWHYYWGQGTQVTVSS | high polyreactivity |

| Sequence | polyreactivity (PSR sort gate) |
| --- | --- |
| QVQLVESGGGLVQAGGSLRLSCAASGRTFHIYAMGWYRQAPGKERELVAAIRGRSGSTYYADSVKGRFTISRDNAKNTVYLQLNSLKPEDTAVYYCAVGRYPYGSARYRFDYWGQGTQVTVSS | high polyreactivity |
| QVQLVESGGGLVQAGGSLRLSCAASGNILIGNVMGWYRQAPGKERELVAAITSGGDTYYADSVKGRFTISRDNAKNTVNLQMNSLKPEDTAVYYCAADRPGQPKYEYWGQGTQVTVSS | low polyreactivity |
| QVQLVESGGGLVQAGGSLRLSCAASGRIFDDNTMGWSRQAPGKERELVAAISSGTSTYYADSVKGRFTISRDNAKNTVYLQMNSLKPEDTAVYYCAAVIKWTKDDYWGQGTQVTVSS | high polyreactivity |
| QVQLVESGGGLVQAGGSLRLSCAASGRNFGIYAMGWYRQAPGKERELVARITGGGSTNYADSVKGRFTISRDNAKNTVYLQMNSLKPEDTAVYYCAATVRRIVGNITRYDYWGQGTQVTVSS | low polyreactivity |
| QVQLVESGGGLVQAGGSLRLSCAASGSTFSTNAMGWYRPAPAKEREFGAAITWSGDSTDYADSVKGRFTISRDNAKNTVYLHMNSLKPEDTAVYYCSAGPFLESYRGYSEMDYWGQGTQVTVSS | low polyreactivity |
| QVHLVGSGGCLVQAGGSLRLSCAASGITFYYYVMGWYRQSPGKERELVAAINSGGSTNYADSVKGRFTISRDNAKNTVYLQMNSLKPEDTAVYYCNAYTVRSYRFDYWGQGTQVTVSS | high polyreactivity |
| QVQLVESGGGLVQAGGSLRLSCAASGSTFFDNAMGWYRQAPGKERELVAAISWSGARTYYADSVKGRFTISRDNAKNTVYLQMNSLKPEDTAVYYCAARFYVSNSRKSARNYWGQGTQVTVSS | high polyreactivity |
| QVQLVESGGGLVQAGGSLRLSCAASGYTFKRYAMGWYRQPPGKERELVAAITSRGGNTYYADSVKGRFTISRDNAKNTVYLQMNSLKPEDTAVYYCAVGGWSAYHLSQMYYWGQGTQVTVSS | high polyreactivity |
| QVQLVESGGCLVQAGGSLRLSCAASGNIIVGNDMGWYRQAPGKERELGAAISSGDTTSYADSVKGRFTISRDNAKNTVFLQMISLKPEDTAVYYCAAGFTYPYDYWGQGTQVTVSS | low polyreactivity |
| QVQLVESGGGLVQAGGSLRLSCAASGSIFVPYAMGWYRQAPGKERELVAAISSSTASTYYADSVKGRFTISRDNAKNTVYLQMNSLKPEDTAVYYCNAEQWDYGVRVAHYDYWGQGTQVTVSS | low polyreactivity |
| QVQLVESGGGLVQAGGSLRLSCAASGLTVNRYALGWYRQAPGKERELVASIRWSGGSTYYADSVKGRFTISRDNAKNTVYLQMNSLKPEDTAVYYCAKSIASAAYDSWGQGTQVTVSS | low polyreactivity |
| QVQLVESGGGLVQAGGSLRLSCAASGSTFDANAMGWYRQAPGKERELVAAISSSGVRTYYADSVKGRFTISRDNAKNTVYLQMNSLKPEDTAVYYCAAGVVISTVDVTYGYWGQGTQVTVSS | low polyreactivity |
| QVQLVESGGGLVQAGGSLRLICAASGLTFYRYAMGWYRQGPGKERELVAGITRRGGSTYYADSVKGRFTISRDKPKNTVYLPMNSLKPEDTAVYYCNVDGISSSYPEMDYWGQGTQVTVSS | low polyreactivity |
| QVQLVESGGGLVQAGGSLRLSCAASGRILTYNAMGWYRQAPGKERELVATISARGSRTYYADSVKGRFTISRDNAKNTVYLQMNSLKPEDTAVYYCNAAVGYYSYSYYTKVGVDYWGQGTQVTVSS | high polyreactivity |
| QVQLVESGGGLVQAGGSLRLSCAASGFIISGYAMGWYRQAPGKERELVAAISWSGGRTYYADSVKGRFTISRDNAKNTVYLQMKSLKPEDTAVYYFAADGYYRDWYGYGYWGLGTQVTVSS | high polyreactivity |
| QVQLVESGGGLVQAGGSLRLSCAASGFIFASYAMGWYRQAPGKERELVAAISWRGGSTYYADSVKGRFTISRDNAKNTVYLQMNSLKPEDTAVYYCNAYVYVGTGRGYDTLDYWGQGTQVTVSS | low polyreactivity |
| QVQLVESGGSLVQAGGSLRLSCDASVLTFPVYAMGWYRQAPGKEREFVASISGRGASTYYADSVKGRFTISRDNAKNTVYLQMNSLIPEDTAVYYCNADVWLLSYFPEYDYWGQGNQVTVSS | low polyreactivity |
| QVQLVESGGGLVQAGGSLRLSCAASGSIFVNYAKGWYRQAPGKERELVAAITRSGGRTYYADSVKGRFTISRDNAKNTVYLQMNSLKPEDTAVYYCNKRRYPYGWGQGTQVNVSS | high polyreactivity |
| QVQLVESGGGLVEAGGSLRLSCAASVRTFRYYDMGWFRQAPGKQWELVAAITARGGSTYYADSVKGRFTISRDNEKNTDYLQMNSQKPEDTAVYYCNAYPLQIFYLGNRQYNYWRQGTQVTVSS | high polyreactivity |
| QVQIVESGGGLDQAGGSLRLSCAASGRTLGYYAMVWYRQAPGIERELVAAISRTGGRTYYADSVKGRFTISLDNAKNTVYLQMNSLKPEDTAVYYCAVVAPDGYDFYYWGQGTQVTVSS | high polyreactivity |
| QVHLVESGVGLVKAGGTLRLSCAASGGIFIRNAMGWYRQAPGKERELVATISNAGSTYADAVKGRFTISRDNAKNPVHLQMHSLKPEDTAVYYCNRDDWTYPVYQGLQEYDYWGQGTQVSVSS | low polyreactivity |
